In US20220251619A1:

Target: porcine pancreatic elastase (Merck, Germany, Cat. No. 324682) (porcine) (UniProt P00772)
Experiment: cell-based or functional assay

Chain of UniProt P00772 (P00772 27-266 limits assumed): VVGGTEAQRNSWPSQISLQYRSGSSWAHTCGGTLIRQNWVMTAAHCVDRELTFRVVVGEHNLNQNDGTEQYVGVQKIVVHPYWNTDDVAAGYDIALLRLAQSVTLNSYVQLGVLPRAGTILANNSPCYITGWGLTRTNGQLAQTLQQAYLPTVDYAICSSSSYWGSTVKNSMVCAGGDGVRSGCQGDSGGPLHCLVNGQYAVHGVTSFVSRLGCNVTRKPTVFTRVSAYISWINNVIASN

| % active AAT relative to plasma-derived AAT (elastase inhibition, SAPNA hydrolysis at 410 nm), Assay 1 [%] | % active AAT relative to plasma-derived AAT (elastase inhibition, SAPNA hydrolysis at 410 nm), Assay 2 [%] | Average % Activity (elastase inhibition, SAPNA hydrolysis at 410 nm) [%] | Substance |
| --- | --- | --- | --- |
| 97.1 | 93 | 95.4 | remodelled rAAT (rAAT incubated with beta1,4-galactosyltransferase, alpha2,3 sialyltransferase from Pasteurella multocida and alpha2,6 sialyltransferase from Photobacterium damselae, then purified) (from UniProt P01009 25-418) |
| 90.1 | 88.6 | 89.3 | recombinant alpha-1 antitrypsin produced in CHO-DG44 cells, untreated (from UniProt P01009 25-418) |
